Data on 1 molecule can be found in article doi:10.1101/398008.

The series concerns the target IMP3 KH1-2 WT (human, UniProt O00425 192-355). The experiment in a line: ITC. A general note: In ITC the heat of successive injections is recorded.

Sequence of IMP3 KH1-2 WT (O00425 192-355): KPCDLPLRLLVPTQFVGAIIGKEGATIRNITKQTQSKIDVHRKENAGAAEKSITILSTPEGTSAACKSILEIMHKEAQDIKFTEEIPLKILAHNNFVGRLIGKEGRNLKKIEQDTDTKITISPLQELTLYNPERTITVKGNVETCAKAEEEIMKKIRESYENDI

Turning to AACACAAUUUUGGAGGAACUACAGAAUGCGGCUA (ssRNA) [34-mer], the binding signal is ~10 fold higher affinity than 7-mer RNAs.
